Measurements from US9862748B2, “Peptide compounds and methods of production and use thereof” (priority 2012, dated 2018).
Square brackets hold non-standard residues; d marks the D form. Peptide text beside a SMILES is read from it. AEEA = NCCOCCOCC(=O)O

Assays:
[1] = set-up: species or system male Sprague Dawley rats; settings: rat, in vivo, iv
Procedure: The purpose of this example was to assess the pharmacokinetics, distribution, and excretion of ^14C-BCC03-5RMP (SEQ ID NO: 23) following a single intravenous administration to male rats. Pharmacokinetic, excretion, and distribution profiles of ^14C-BCC03-5RMP-derived radioactivity were examined in male Sprague Dawley rats following a single intravenous administration of ^14C-BCC03-5RMP (20 mg/kg; 125 μCi/kg). ^14C-BCC03-5RMP was formulated in 5% (v:v) dextrose in water, pH 5.5 and was administered at a dose volume of 5 mL/kg. For assessment of pharmacokinetics of total radioactivity (Group 1), blood was collected at 0.25, 0.5, 1, 2, 4, 8, 24, 48, and 72 hours postdose. For assessment of excretion profiles, urine was collected from 0-8 and 8-24 hours postdose, and at 24-hour intervals through 168 hours postdose. Feces was collected at 24-hour intervals through 168 hours postdose. For assessment of distribution profiles, one animal/time point was sacrificed at 0.25, 1, 4, 24, and 72 hours postdose, and the carcasses were prepared for quantitative whole-body autoradiography (QWBA). Concentrations of radioactivity in whole blood, plasma, urine, feces (after oxidation), cage rinse, cage wash, and carcass were determined by liquid scintillation counting (LSC). Tissue concentrations were calculated by interpolation from each standard curve using MCID™ analysis software (InterFocus Imaging Ltd Corp., UK). Pharmacokinetic parameters for total radioactivity in blood and plasma were calculated using WinNonlin Professional Edition (version 5.2, Pharsight Corporation, St. Louis, Mo.).

[2] = system: human corneal epithelial cell (HCEC); test: HCEC chemotaxis, modified Boyden chemotaxis chamber assay; type: cell-based; settings: 120-146QH 10^−4 to 10^−10 M; 120-146QR 10^−6 and 10^−8 M; HB-EGF 50 ng/ml; rCAP37 250 ng/ml; 3 hours
Procedure: The effect of buffer control (0.1% BSA in Gey's buffer), heparin binding-epidermal growth factor (HB-EGF, 50 ng/ml), recombinant CAP37 (rCAP37, 250 ng/ml), 120-146QH ([…], 10^−10M, 10^−8M, 10^−4M, and 10^−4M,) and 120-146QR (10^−10M, 10^−8M, 10^−6M, and 10^−4M) on HCEC chemotaxis was determined by the modified Boyden chemotaxis chamber method. HCEC chemotaxis was measured in response to HB-EGF, rCAP37, and peptides 120-146QH (SEQ ID NO: 29) and 120-146QR (SEQ ID NO: 28) after incubation for 3 hours at 37° C. Chemotaxis is expressed as a percent migration. The buffer control (no chemoattractant) is arbitrarily assigned the value of 100% migration. Data are expressed as means±SEM and are calculated from 6 observations for each test point. **P<0.01 by Wilcoxon signed-rank test as compared to controls.
Chemotaxis assays were performed using the modified Boyden chemotaxis chamber assay. Peptide 120-146QH was used at 10^−4M, 10^−6M, 10^−8 M, 10^−10 M, and 10^−12M, and peptide 120-146QR was used at 10^−4M, 10^−6M, 10^−8 M, and 10^−10 M.

[3] = system: mouse cornea (corneal epithelial abrasion); test: In vivo model of corneal wound healing
Procedure: The in vivo model of wound healing was carried out using a disposable biopsy punch (2 mm, Miltex, York, Pa.) to demarcate the mouse cornea and a 0.5 mm burr using the AlgerBrush II (The Alger Company, Inc., Lago Vista, Tex.) to remove the corneal epithelium.
Mice were anesthetized using ketamine (100 mg/kg; Bionichepharma, LLC., St. Lake Forrest, Ill.) and xylazine ([…]; Rompun; Bayer Corp., Shawnee Mission, Kans.), and the right cornea was wounded as follows. A disposable biopsy punch (2 mm, Miltex, York, Pa.) was used to demarcate the mouse cornea. The corneal epithelium was carefully removed within the 2 mm demarcated area with a 0.5 mm burr using the AlgerBrush II (The Alger Company, Inc., Lago Vista, Tex.). The corneal abrasions were treated at 0 and 16 hours with HB-EGF (250 ng/ml), rCAP37 (250 ng/ml), or vehicle control (0.9% sodium chloride, pH 5.5, Baxter, Deerfield, Ill.). Corneal abrasions were visualized using sterile fluorescein sodium ophthalmic strips USP (FLUORETS®, Chauvin Laboratory, Aubenas, France) dampened with sterile PBS. Images were taken at 0, 16, 24, and 48 hours immediately following fluorescein staining using a surgical microscope equipped with a camera (Carl Zeiss OPMI VISU 140, Carl Zeiss Surgical, Inc., Oberkochen, Germany). The areas of the open wound were quantitated using ImageJ software (US National Institutes of Health), and the results were reported as the percentage of wound closure.
Whole mouse eyes were collected for histology at 0, 6, 16, 24, and 48 hours post wounding and were immediately placed in Prefer fixative (Anatech LTD., Battle Creek, Mich.) for 20 minutes before being transferred to 70% ethanol. Tissues were paraffin-embedded and cut at a thickness of 5 μm, mounted on SUPERFROSTPLUS® slides (Statlab Medical Products, Lewisville, Tex.), and subsequently deparaffinized, rehydrated, and washed in deionized water. Sections were stained with hematoxylin (Leica Microsystems, Buffalo Grove, Ill.) and rinsed twice in deionized water before being washed in Blue Buffer (Leica Microsystems). The sections were finally washed in deionized water and 95% ethanol prior to being counterstained with eosin (Leica Microsystems). Sections were dehydrated in ethanol and cleared in xylene.

[4] = system: HCEC monolayers; test: In vitro scratch assay of wound closure; type: cell-based, human
Procedure: An in vitro scratch assay was used in order to determine the ability of rCAP37 to facilitate corneal wound healing. Human corneal epithelial cells were cultured as described above until they reached a confluent monolayer. Each monolayer was scratched using a 10 μl pipette tip to create two perpendicular lines. Monolayers were treated with heparin binding-epidermal growth factor (HB-EGF, 250 ng/ml; Becton Dickinson), rCAP37 (25-2000 ng/ml), or basal KSFM (Gibco). Wound closure was monitored at 0, 18, 24, and 48 hours utilizing a camera-equipped inverted microscope (TE2000-E; Nikon, Melville, N.Y.). Time-lapse images of in vitro wound closure were obtained using a camera-equipped inverted microscope (TE2000-E; Nikon) from 0-18 hours. HCEC monolayers were treated with HB-EGF, rCAP37, and basal KSFM as described above. The width of each scratch was quantitated using ImageJ software (US National Institutes of Health, Bethesda, Md.). Results are presented as the percentage of wound closure.

[5] = 250 ng/ml topical at 0 and 16 hours

Row | Molecule | administered radioactivity eliminated within the first 48 hours postdose [1] | Clearance of radioactivity in plasma compared to blood ([1]; 20 mg/kg) | exposure (AUC0-∞) in blood compared to plasma ([1]; 20 mg/kg) | volume of distribution of total radioactivity in blood compared to plasma ([1]; 20 mg/kg) | HCEC migration versus buffer control [2] | corneal wound healing versus vehicle ([3]; treated at 0 and 16 hours, 95-122 10^−5 M, 120-146WH 10^−8 M or 10^−6 M, HB-EGF 250 ng/ml) | time to complete closure of scratched monolayers ([4]; 250 ng/ml) [h] | percentage wound closure in vitro ([4]; 250 ng/ml, at 18 hours) [%] | re-epithelialization at 24 hours versus vehicle (H&E histology) ([3]; 250 ng/ml) | wound closure at 16 hours [3, 5] [%] | wound closure at 24 hours [3, 5] [%] | percentage wound closure in vitro ([4]; 500 ng/ml)
1 | CC[C@H](C)[C@H](NC(=O)[C@H](CC(C)C)NC(=O)[C@H](C)NC(=O)CNC(=O)CNC(=O)[C@H](CS)NC(=O)[C@H](Cc1ccccc1)NC(=O)[C@H](Cc1c[nH]cn1)NC(=O)[C@H](CCCNC(=N)N)NC(=O)CNC(=O)[C@H](CCC(N)=O)NC(=O)[C@H](CC(N)=O)NC(=O)[C@H](CCCNC(=N)N)NC(=O)[C@H](CCCNC(=N)N)NC(=O)[C@H](CCCNC(=N)N)NC(=O)[C@H](CCCNC(=N)N)NC(=O)COCCOCCNC(=O)COCCOCCN)C(=O)N[C@@H](Cc1c[nH]cn1)C(=O)N[C@@H](C)C(=O)N[C@@H](CCCNC(=N)N)C(=O)N[C@@H](Cc1ccccc1)C(=O)N[C@H](C(=O)N[C@@H](CCSC)C(=O)N[C@H](C(=O)N[C@@H](C)C(=O)N[C@@H](C)C(=O)N[C@@H](CO)C(=O)N[C@@H](CO)C(=O)N[C@@H](Cc1ccccc1)C(=O)N[C@@H](CCC(N)=O)C(=O)N[C@@H](CCCNC(=N)N)C(=O)O)[C@@H](C)O)C(C)C [^14C-BCC03-5RMP] (H-[AEEA][AEEA]RRRRNQGRHFCGGALIHARFVMTAASSFQR-OH; N-terminus assumed) | approximately 55% | approximately 2 fold | approximately 2 fold | approximately 1.6 fold |  |  |  |  |  |  |  | 
2 | HB-EGF: heparin binding-epidermal growth factor, used as the positive control (protein, UniProt Q99075 63-148, looked up) Heparin-binding EGF-like …: DLQEADLDLLRVTLSSKPQALATPNKEEHGKRKKKGKGLGKKRDPCLRKYKDFCIHGECKYVKELRAPSCICHPGYHGERCHGLSL |  |  |  |  | significant increase in migration | significantly higher | ≤ 24 | ~88 |  |  |  | 
3 | CAP37: cationic antimicrobial protein of Mr 37 kDa; recombinant CAP37 produced in human embryonic kidney (HEK) 293 cells (protein) IVGGRKARPRQFPFLASIQNQGRHFCGGALIHARFVMTAASCFQSQNPGVSTVVLGAYDLRRRERQSRQTFSISSMSENGYDPQQNLNDLMLLQLDREANLTSSVTILPLPLQNATVEAGTRCQVAGWGSQRSGGRLSRFPRFVNVTVTPEDQCRPNNVCTGVLTRRGGICNGDGGTPLVCEGLAHGVASFSLGPCGRGPDFFTRVALFRDWIDGVLNNPGP |  |  |  |  | significant increase in migration |  |  | ~71 | greatly accelerated | 71 | 83 | approximately 62%
